Starred links: 1 amine or outer side, 2 acyl side, 3 side chain; linkers in the order of their positions; H or OH if unused. Positions of bridges follow the written chain, without caps; N, C: chain ends. Non-standard residues stand in square brackets, D forms with d. Primed or numbered codes have the meaning given here. *: point of attachment. PyrS2″ = (S)-3-amino-1-((pent-4-en-1-yloxy)carbonyl)pyrrolidine-3-carboxylic acid (stapling residue), C=CCCCOC(=O)N1CC[C@@](N[*:1])(C(=O)[*:2])C1; B5(4) = 2,2-bis(4-pentenyl)glycine = 2-amino-2-(pent-4-en-1-yl)hept-6-enoic acid (stitching residue), C=CCCCC(CCCC=C)(N[*:1])C(=O)[*:2]; B5(5) = 2,2-bis(4-pentenyl)glycine, 2-amino-2-(pent-4-en-1-yl)hept-6-enoic acid (stitching residue), C=CCCCC(CCCC=C)(N[*:1])C(=O)[*:2]; PyrS2 = (S)-3-amino-1-((pent-4-en-1-yloxy)carbonyl)pyrrolidine-3-carboxylic acid, C=CCCCOC(=O)N1CC[C@@](N[*:1])(C(=O)[*:2])C1; PyrS1 = (S)-3-amino-1-((but-3-en-1-yloxy)carbonyl)pyrrolidine-3-carboxylic acid, C=CCCOC(=O)N1CC[C@@](N[*:1])(C(=O)[*:2])C1; B5(25) = 2-amino-2-(pent-4-en-1-yl)hept-6-enoic acid (stitching residue), C=CCCCC(CCCC=C)(N[*:1])C(=O)[*:2]; MorphAsn = (S)-2-amino-4-morpholino-4-oxobutanoic acid, O=C(C[C@H](N[*:1])C(=O)[*:2])N1CCOCC1; B5(3) = 2,2-bis(4-pentenyl)glycine (stitching residue), C=CCCCC(CCCC=C)(N[*:1])C(=O)[*:2]; B6 = 2-amino-2-(hex-5-en-1-yl)oct-7-enoic acid, C=CCCCCC(CCCCC=C)(N[*:1])C(=O)[*:2]; R6 = (R)-2-amino-2-methyloct-7-enoic acid, C=CCCCC[C@@](C)(N[*:1])C(=O)[*:2]; R4 = (R)-2-amino-2-methylhex-5-enoic acid, C=CCC[C@@](C)(N[*:1])C(=O)[*:2]; Phe(3-CF3) = N[C@@H](Cc1cccc(C(F)(F)F)c1)C(=O)O; Phe(3-COOH) = N[C@@H](Cc1cccc(C(=O)O)c1)C(=O)O; Phe(2-CF3) = N[C@@H](Cc1ccccc1C(F)(F)F)C(=O)O; Phe(2-Cl) = N[C@@H](Cc1ccccc1Cl)C(=O)O; dαMeGly(allyl) = C=CC[C@@](C)(N)C(=O)O; Bta = N[C@@H](Cc1csc2ccccc12)C(=O)O; Lys(iPr) = CC(C)NCCCC[C@H](N)C(=O)O; αAllylPro = C=CC[C@@]1(C(=O)O)CCCN1; Morpholinoacetyl = O=C(CN1CCOCC1)*; tBuAla = CC(C)(C)C[C@H](N)C(=O)O; 3Thi = N[C@@H](Cc1ccsc1)C(=O)O; Cha = N[C@@H](CC1CCCCC1)C(=O)O; Leu(ol) = CC(C)C[C@H](N)CO; Me2Npr = not defined here; Alaol = C[C@@H](CO)N*; Ms = CS(=O)(=O)*
B1: I-1073 (peptide)
peptide: Ac-[αAllylPro]D[tBuAla][B5(3)]DEAAFL[PyrS2″]F[Bta]Q-NH2
modifications: staple 1-4, 4-11; not fully specified; printed as Ac-PL3-Asp-Npg-B5-Asp-Glu-Ala-Ala-Phe-Leu-PyrS2-Phe-BztA-Gln-NH2
B2: I-1991 (peptide)
peptide: Ac-PD[tBuAla][R6]DDAAFL[PyrS2][3Thi][Bta]Q-NH2
modifications: staple 4-11; not fully specified; printed as Ac-Pro-Asp-Npg-R6-Asp-Asp-Ala-Ala-Phe-Leu-PyrS2-3Thi-BztA-Gln-NH2; also: staple -CH=CH- reduced to -CH2-CH2-
B3: I-1992 (peptide)
peptide: Ac-PD[tBuAla][R4]DDAAFL[PyrS2][3Thi][Bta]Q-NH2
modifications: staple 4-11; not fully specified; printed as Ac-Pro-Asp-Npg-R4-Asp-Asp-Ala-Ala-Phe-Leu-PyrS2-3Thi-BztA-Gln-NH2; also: staple -CH=CH- reduced to -CH2-CH2-
B4: I-1993 (peptide)
peptide: Ac-PD[tBuAla][dαMeGly(allyl)]DDAAFL[PyrS2][3Thi][Bta]Q-NH2
modifications: staple 4-11; not fully specified; printed as Ac-Pro-Asp-Npg-R3-Asp-Asp-Ala-Ala-Phe-Leu-PyrS2-3Thi-BztA-Gln-NH2; also: staple -CH=CH- reduced to -CH2-CH2-
B5: I-2002 (peptide)
peptide: Ac-[αAllylPro]DA[B5(4)]NTAAFN[PyrS2″][3Thi][Bta]Q-NH2
modifications: staple 1-4, 4-11; not fully specified; printed as Ac-PL3-Asp-Ala-B5-Asn-Thr-Ala-Ala-Phe-Asn-PyrS2-3Thi-BztA-Gln-NH2
B6: I-2003 (peptide)
peptide: Ac-[αAllylPro]DA[B5(4)]NTAAFN[PyrS2″][3Thi][Bta]Q-NH2
modifications: staple 1-4, 4-11; not fully specified; printed as Ac-PL3-Asp-Ala-B5-Asn-Thr-Ala-Ala-Phe-Asn-PyrS2-3Thi-BztA-Gln-NH2
B7: I-2004 (peptide)
peptide: Ac-[αAllylPro]D[tBuAla][B5(4)]NT[Lys(iPr)]AFN[PyrS2″][3Thi][Bta]Q-NH2
modifications: staple 1-4, 4-11; not fully specified; printed as Ac-PL3-Asp-Npg-B5-Asn-Thr-iPrLys-Ala-Phe-Asn-PyrS2-3Thi-BztA-Gln-NH2
B8: I-2005 (peptide)
peptide: Ac-[αAllylPro]D[tBuAla][B5(4)]NT[Lys(iPr)]AFN[PyrS2″][3Thi][Bta]Q-NH2
modifications: staple 1-4, 4-11; not fully specified; printed as Ac-PL3-Asp-Npg-B5-Asn-Thr-iPrLys-Ala-Phe-Asn-PyrS2-3Thi-BztA-Gln-NH2
B9: I-2519 (peptide)
peptide: Ac-[αAllylPro]D[tBuAla][B6]D[Phe(3-COOH)]QAFL[PyrS1][Phe(2-CF3)][Bta]A-NH2
modifications: staple 1-4, 4-11; not fully specified; printed as Ac-PL3-Asp-Npg-B6-Asp-3COOHF-Gln-Ala-Phe-Leu-PyrS1-2F3MeF-BztA-Ala-NH2
B10: I-2520 (peptide)
peptide: Ac-[αAllylPro]D[tBuAla][B5(4)]DXQAFL[PyrS2][Phe(2-CF3)][Bta]A-NH2
modifications: staple 1-4, 4-11; not fully specified (residue 6); printed as Ac-PL3-Asp-Npg-B5-Asp-[CH2CChCO2H]TriAzDap-Gln-Ala-Phe-Leu-PyrS2-2F3MeF-BztA-Ala-NH2
B11: I-2523 (peptide)
peptide: Ac-[αAllylPro]N[Cha][B5(4)]DQKAFL[PyrS2]F[Bta][MorphAsn]-NH2
modifications: staple 1-4, 4-11; not fully specified (residue 7); printed as Ac-PL3-Asn-Cha-B5-Asp-Gln-[Phc]Lys-Ala-Phe-Leu-PyrS2-Phe-BztA-MorphAsn-NH2
B12: I-2528 (peptide)
peptide: Ac-[αAllylPro]N[Cha][B5(25)]DQK(Me2Npr)AFL[PyrS2]F[Bta][MorphAsn]-NH2
modifications: staple 1-4, 4-11; reading uncertain; also: printed as Ac-PL3-Asn-Cha-B5-Asp-Gln-[Me2Npr]Lys-Ala-Phe-Leu-PyrS2-Phe-BztA-MorphAsn-NH2

target: full-length beta-Catenin (Uniprot ID P35222) (Homo sapiens (Human)) (UniProt P35222); experiment: fluorescence polarization competition; full-length beta-catenin, competitor 5FAM-TCF4(10-53) probe
Target sequence in this assay (P35222 whole entry): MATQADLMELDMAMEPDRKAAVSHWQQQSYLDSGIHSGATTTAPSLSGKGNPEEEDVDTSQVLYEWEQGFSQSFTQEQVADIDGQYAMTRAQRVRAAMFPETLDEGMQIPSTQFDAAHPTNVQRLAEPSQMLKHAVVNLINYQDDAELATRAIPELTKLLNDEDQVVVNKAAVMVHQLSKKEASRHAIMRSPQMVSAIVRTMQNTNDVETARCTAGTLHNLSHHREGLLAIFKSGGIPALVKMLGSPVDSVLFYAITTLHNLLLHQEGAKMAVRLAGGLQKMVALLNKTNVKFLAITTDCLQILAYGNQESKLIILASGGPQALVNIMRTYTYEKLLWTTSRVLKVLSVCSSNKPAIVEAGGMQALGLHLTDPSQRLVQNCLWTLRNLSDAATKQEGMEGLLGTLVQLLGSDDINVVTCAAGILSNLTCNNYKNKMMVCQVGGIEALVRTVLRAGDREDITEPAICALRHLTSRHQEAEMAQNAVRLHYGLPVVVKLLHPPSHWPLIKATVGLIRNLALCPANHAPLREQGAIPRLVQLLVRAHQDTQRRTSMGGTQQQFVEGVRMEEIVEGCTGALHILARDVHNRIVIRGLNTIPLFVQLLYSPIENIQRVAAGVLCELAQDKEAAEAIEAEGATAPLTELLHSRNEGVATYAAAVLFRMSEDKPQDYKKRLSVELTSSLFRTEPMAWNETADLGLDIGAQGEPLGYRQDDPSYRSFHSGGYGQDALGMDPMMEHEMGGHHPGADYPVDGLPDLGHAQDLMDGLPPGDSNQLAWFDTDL

Compared with Ac-[αAllylPro]D[tBuAla][B5(3)]DEAAFL[PyrS2″][Phe(2-Cl)][Bta]T-NH2 (staple 1-4, 4-11; also: staple stereoisomer: later eluting HPLC peak) [I-1071], B1 is 3.1-fold lower in EC50: 1260 nM for the first, 409 nM for the second.

First: Ac-[αAllylPro]D[tBuAla][B5(3)]DEAAFL[PyrS2″]F[Bta]Q-NH2 (staple 1-4, 4-11; also: staple stereoisomer: later eluting HPLC peak) [I-1074]
Second: Ac-[αAllylPro]D[Cha][B5(4)]DEAAFL[PyrS2″][Phe(2-Cl)][Bta]Q-NH2 (staple 1-4, 4-11; also: earlier-eluting staple isomer composition) [I-1077]
The EC50 of the first is 1.5-fold higher: 498 nM for the first, 324 nM for the second. The second is the more potent here.

First: Ac-[αAllylPro]D[Cha][B5(4)]DEAAFL[PyrS2″][Phe(2-Cl)][Bta]Q-NH2 (staple 1-4, 4-11; also: later-eluting staple isomer composition) [I-1078]
Second: Ac-[αAllylPro]D[tBuAla][B5(4)]DDAAFN[PyrS2″][Phe(2-Cl)][Bta][Leu(ol)] (staple 1-4, 4-11) [I-1080]
The EC50 of the first is 59-fold higher: 352 nM for the first, 6 nM for the second. The second is the more potent here.

Ac-[αAllylPro]D[tBuAla][B5(3)]DDAAFN[PyrS2″][Phe(2-Cl)][Bta]-Alaol (staple 1-4, 4-11) [I-1081] was tested, and the EC50 was 5 nM.

target: full-length beta-Catenin (Uniprot ID P35222) (Homo sapiens (Human)) (UniProt P35222); experiment: fluorescence polarization competition; 10 nM full-length beta-catenin + 10 nM 5FAM-TCF4(10-53) probe
Target sequence in this assay (P35222 whole entry): as above

Going from Ac-PD[tBuAla][R6]DDAAFL[PyrS2][3Thi][Bta]Q-NH2 (staple 4-11) [I-1988] to Ac-PD[tBuAla][R4]DDAAFL[PyrS2][3Thi][Bta]Q-NH2 (staple 4-11) [I-1989], the IC50 falls from 312 nM to 186 nM (1.7-fold).

Ac-PD[tBuAla][dαMeGly(allyl)]DDAAFL[PyrS2][3Thi][Bta]Q-NH2 (staple 4-11) [I-1990] and B2 are within 1.5-fold of each other in IC50: 585 nM for the first, 397 nM for the second.

B3 and B4 are within 1.5-fold of each other in IC50: 536 nM for the first, 728 nM for the second.

First: B5
Second: B6
The IC50 of the first is 1.7-fold lower: 612 nM for the first, 1020 nM for the second. The first is the more potent here.

First: B7
Second: B8
The IC50 of the first is 1.6-fold lower: 227 nM for the first, 357 nM for the second.

Ac-[αAllylPro]D[tBuAla][B5(4)]NTA[Lys(iPr)]FN[PyrS2″][3Thi][Bta]Q-NH2 (staple 1-4, 4-11) [I-2006] was tested, and the IC50 was 285 nM.

target: full-length beta-Catenin (Uniprot ID P35222) (Homo sapiens (Human)) (UniProt P35222); experiment: fluorescence polarization competition; peptide titrated against 10 nM full-length beta-catenin + 10 nM 5FAM-TCF4(10-53)

Compared with Ac-[αAllylPro]D[tBuAla][B5(3)]DEAAFL[PyrS2″][Phe(2-Cl)][Bta]T-NH2 (staple 1-4, 4-11; also: staple stereoisomer: later eluting HPLC peak) [I-1071], B1 is 3.1-fold lower in IC50: 1260 nM for the first, 409 nM for the second. The second is the more potent here.

Going from Ac-[αAllylPro]D[tBuAla][B5(3)]DEAAFL[PyrS2″]F[Bta]Q-NH2 (staple 1-4, 4-11; also: staple stereoisomer: later eluting HPLC peak) [I-1074] to Ac-[αAllylPro]D[Cha][B5(4)]DEAAFL[PyrS2″][Phe(2-Cl)][Bta]Q-NH2 (staple 1-4, 4-11; also: earlier-eluting staple isomer composition) [I-1077], the IC50 falls from 498 nM to 324 nM (1.5-fold). The second is the more potent here.

Going from Ac-[αAllylPro]D[Cha][B5(4)]DEAAFL[PyrS2″][Phe(2-Cl)][Bta]Q-NH2 (staple 1-4, 4-11; also: later-eluting staple isomer composition) [I-1078] to Ac-[αAllylPro]D[tBuAla][B5(4)]DDAAFN[PyrS2″][Phe(2-Cl)][Bta][Leu(ol)] (staple 1-4, 4-11) [I-1080], the IC50 falls from 352 nM to 6 nM (59-fold). The second is the more potent here.

First: Ac-[αAllylPro]D[tBuAla][B5(3)]DDAAFN[PyrS2″][Phe(2-Cl)][Bta]-Alaol (staple 1-4, 4-11) [I-1081]
Second: Ac-[αAllylPro]D[tBuAla][B6]D[Phe(3-COOH)]QAFL[PyrS2][Phe(2-CF3)][Bta]A-NH2 (staple 1-4, 4-11) [I-2515]
The IC50 of the first is 320-fold lower: 5 nM for the first, 1610 nM for the second. The first is the more potent here.

Compared with Ac-[αAllylPro]D[tBuAla][B6]D[Phe(3-COOH)]QAFL[PyrS2][Phe(2-CF3)][Bta]A-NH2 (staple 1-4, 4-11; also: one of three HPLC isomer compositions) [I-2516], Ac-[αAllylPro]D[tBuAla][B6]D[Phe(3-COOH)]QAFL[PyrS2][Phe(2-CF3)][Bta]A-NH2 (staple 1-4, 4-11) [I-2517] is 3.4-fold lower in IC50: 209 nM for the first, 61 nM for the second. The second is the more potent here.

Compared with B9, B10 is 3.5-fold lower in IC50: 94 nM for the first, 27 nM for the second.

First: Ac-[αAllylPro]N[Cha][B5(4)]DQK(Ac)AFL[PyrS2]F[Bta][MorphAsn]-NH2 (staple 1-4, 4-11) [I-2522]
Second: B11
The IC50 of the first is 7.9-fold lower: 219 nM for the first, 1730 nM for the second.

First: Ac-[αAllylPro]N[Cha][B5(25)]DQK(Ms)AFL[PyrS2]F[Bta][MorphAsn]-NH2 (staple 1-4, 4-11) [I-2524]
Second: Ac-[αAllylPro]N[Cha][B5(25)]DQK(CF3CO)AFL[PyrS2]F[Bta][MorphAsn]-NH2 (staple 1-4, 4-11) [I-2525]
The IC50 of the first is 7-fold lower: 609 nM for the first, 4290 nM for the second.

Going from Ac-[αAllylPro]N[Cha][B5(4)]DQK(Morpholinoacetyl)AFL[PyrS2]F[Bta][MorphAsn]-NH2 (staple 1-4, 4-11) [I-2527] to B12, the IC50 rises from 263 nM to 610 nM (2.3-fold).

Ac-[αAllylPro]D[tBuAla][B5(5)]DTAA[Phe(3-CF3)]T[PyrS2″]F[Bta]S-NH2 (staple 1-4, 4-11) [I-1268: Ac-PL3-Asp-Npg-B5-Asp-Thr-Ala-Ala-3F3MeF-Thr-PyrS2-Phe-BztA-Ser-NH2] gave an IC50 of 198 nM.
